Here are results for ten molecules from patent US20190359698A1 (YAMAGUCHI UNIVERSITY, published 2019).

Sequences and labels used below:
B1: IgG clone TF1413-02d028 (antibody, V domains shown)
VH: QVQLKESGPELEKPGASVKISCKASGYSFTGYNMNWVKQSNGKSLEWIGNIDPYYGGTSYNQKFKGKATLTVDKSSSTAYMQLKSLTSEDSAVYYCARGDYRAYYFDYWGQGTTLTVSS
VL: DIQMTQSPKFMSTSVGDRVSITCKASQNVRTAVAWYQQKPGQSPKALIYLASNRHTGVPDRFTGSGSGTDFTLTISNVQSEDLADYFCLQHWNYPLTFGAGTKLELKR
notes: also called TF1413-02d028 IgG antibody; scFv clone [TF1413-02d028] antibody
B2: IgG clone TF1413-02e040 (antibody, V domains shown)
VH: EVMLVESGPELVKPGASMKISCKASGYSFTGYTMNWVKQSHGKNLEWIGLINPYNGGTSYNQNFKGKATLTVDKSSSTAYMELLSLTSEDSAVYYCARGYYGRFDYWGQGTTLTVSS
VL: B1 VL with Q3L, M4L
notes: also called TF1413-02e040 IgG antibody
B3: IgG clone TF1413-03e034 (antibody, V domains shown)
VH: B1 VH with Q1E, K5Q, E6Q, D100N, R102G, A103Y, Y105A, F106M, T114S, L115V
VL: B1 VL with Q3V, T5S
notes: also called TF1413-03e034 IgG antibody
B4: IgG clone TF1413-02e014 (antibody, V domains shown)
VH: QVQLKQSGAELVRSGASVKLSCTASGFNIKDYYMHWVKQRPEQGLEWIGWIDPENGDTEYAPKFQGKATMTADTSSNTAYLQLSSLTSEDTAVYYCNAGYYDYDGYAMDYWGQGTSVTVSS
VL: DIVLTQSPKFMSTSVGDRVSITCKASQDVGTAVAWYQQKPGQSPKLLIYWASTRHTGVPDRFTGSGSGTDFTLTISNVQSEDLADYFCQQYSSYPLTFGGGTKLEIKR
notes: also called TF1413-02e014 IgG antibody
B5: IgG clone TF1413-03e005 (antibody, V domains shown)
VH: B4 VH with Q6E, G99F, S121R
VL: DVVMTQTPSSLSASLGERVSLTCRASQEISGYLSWLQQKPDGTIKRLIYAASTLDSGVPKRFSGSRSGSDYSLTISSLESEDFADYYCLQYASYPLTFGAGTKLELKR
notes: also called TF1413-03e005 IgG antibody
B6: IgG clone TF1413-02e004 (antibody, V domains shown)
VH: QVQLQQSGAELVKPGAPVKLSCKASGYTFTSYWMNWVKQRPGRGLEWIGRIDPSDSETHYNQKFKDEATLTVDKSSSTAYIQLSSLTSEDSAVYYCARGYYAMDYWGQGTSVTVSS
VL: DIVLTQSPKFMSTSVGDRVSITCKASQDVSTAVAWYQQKPGQSPKLLIYSASYRYTGVPDRFTGSGSGTDFTFTISSVQAEDLAVYYCQQHYSTPTFGGGTKLEIKR
notes: also called TF1413-02e004 IgG antibody
B7: IgG clone TF1413-03e004 (antibody, V domains shown)
VH: B6 VH with Q5K, E67K, A102G, M103S, D104N, S111T, V112L
VL: DIKMTQSPKFMSTSVGDRVSVTCKASQNVGTNVAWYQQKPGQSPKALIYSASYRYSGVPDRFTGSGSGTDFTLTISNVQSEDLAEYFCQQYNSYPLTFGAGTKLELKR
notes: also called TF1413-03e004 IgG antibody
B8: IgG clone TF1413-02e030 (antibody, V domains shown)
VH: EVQLQQSGAELVRPGALVKLSCKASGFNIKDYYMHWVKQRPEQGLEWIGWIDPENGNTIYDPKFQGKASITADTSSNTAYLQLSSLTSEDTAVYYCAISTMITTLDYWGQGTTLTVSS
VL: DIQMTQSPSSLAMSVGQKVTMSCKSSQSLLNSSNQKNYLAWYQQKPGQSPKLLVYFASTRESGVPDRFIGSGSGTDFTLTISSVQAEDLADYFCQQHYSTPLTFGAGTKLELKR
notes: also called TF1413-02e030 IgG antibody
B9: IgG clone TF1413-02d039 (antibody, V domains shown)
VH: EVKLVESGGGLVKPGGSLKLSCAASGFAFSSYDMSWVRQTPEKRLEWVAYISSGGGSTYYPDTVKGRFTISRDNAKNTLYLQMSSLKSEDTAMYYCARRGLRRAMDYWGQGTSVTVSS
VL: DVVMTQTPLSLPVSLGDQASISCRSSQSLVHSNGNTYLHWYLQKPGQSPKLLIYKVSNRFSGVPDRFSGSGSGTDFTLKISRVEAEDLGVYFCSQSTHVPLTFGAGTKLELKR
notes: also called TF1413-02d039 IgG antibody
B10: IgG clone TF1413-03e015 (antibody, V domains shown)
VH: EVQLQQSGPELVKPGASMKISCKASGYSFTGYTMNWVKQSHGKNLEWIGLINPYNGGTSYNQKFKGKATLTVDKSSSTAYMELLSLTSEDSAVYYCARGDYYPPYAMDYWGQGTSVTVSS
VL: B7 VL with K3V, T5S, A46P, S93R, A100V, L106I
notes: also called TF1413-03e015 IgG antibody

Changes are numbered by the printed parent chain.

The first assay deals with T1, GPC3 C-terminal fragment (polypeptide consisting of the amino acid sequence represented by SEQ ID NO: 156) (human).
T1 construct: domain: transmembrane domain; also called GPC3 C-terminal fragment-expressing cell line; C-terminal polypeptide of GPC3; not shown: HA tag added to the N terminus by the pDisplay vector; myc tag added to the C terminus of the PDGFR by the pDisplay vector
T1 sequence (P09619 other isoform, or with tags, fused parts or gaps): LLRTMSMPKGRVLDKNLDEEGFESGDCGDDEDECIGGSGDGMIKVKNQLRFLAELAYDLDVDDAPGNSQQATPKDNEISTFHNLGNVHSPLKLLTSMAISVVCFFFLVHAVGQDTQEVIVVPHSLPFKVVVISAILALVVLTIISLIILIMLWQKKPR
Kind of assay: FCM of IgG on GPC3 C-terminal fragment-expressing cell line.
B1: the binding result is “no binding”.
B2: the binding result was “no binding”.
With B3, the binding result was “no binding”.
As for B4, the binding result is on record as “no binding”.
The same measure, in the same setting: under B5 stands “no binding”; under B6, “no binding”; under B7, “no binding”.
On to B8, for which the binding result is listed as “no binding”.
As for B9, the binding result is listed as “no binding”.

Another assay deals with T2, GPC3 N-terminal fragment (polypeptide consisting of the amino acid sequence represented by SEQ ID NO: 155) (human).
T2 construct: domain: transmembrane domain; also called GPC3 N-terminal fragment-expressing cell line; N-terminal polypeptide of GPC3; not shown: HA tag added to the N terminus by the pDisplay vector; myc tag added to the C terminus of the PDGFR by the pDisplay vector
T2 sequence (P09619 other isoform, or with tags, fused parts or gaps): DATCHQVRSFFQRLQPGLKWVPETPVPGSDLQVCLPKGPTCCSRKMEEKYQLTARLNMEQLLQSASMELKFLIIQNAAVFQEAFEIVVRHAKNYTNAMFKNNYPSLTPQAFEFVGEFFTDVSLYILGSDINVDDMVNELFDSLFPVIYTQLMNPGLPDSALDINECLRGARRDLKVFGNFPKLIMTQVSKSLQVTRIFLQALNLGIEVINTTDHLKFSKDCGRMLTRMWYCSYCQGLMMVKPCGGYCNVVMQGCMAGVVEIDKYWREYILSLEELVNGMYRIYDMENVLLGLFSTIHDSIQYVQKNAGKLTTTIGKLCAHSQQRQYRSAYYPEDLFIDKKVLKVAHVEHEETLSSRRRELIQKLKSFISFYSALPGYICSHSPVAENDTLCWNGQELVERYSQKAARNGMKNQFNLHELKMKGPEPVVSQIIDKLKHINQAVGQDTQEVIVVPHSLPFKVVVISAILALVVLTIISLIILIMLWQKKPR
Kind of assay: FCM of IgG on GPC3 N-terminal fragment-expressing cell line.
As for B1, the binding result is “binds”.
In the case of B2, the binding result was “binds”.
Turning to B3, the binding result is given as “binds”.
For the molecule B10, the binding result is given as “no binding”.
Turning to B4, the binding result is “binds”.
On the same count and under the same terms, under B5 stands “binds”; under B6, “binds”.
